Laboratory results from patent US10385103B2, “Cell-permeable (ICP)-SOCS3 recombinant protein and uses thereof” (CELLIVERY THERAPEUTICS, INC., priority 2014, dated 2019).
Entries after “also recorded” stand apart in the source; their conditions may differ.

How the values were obtained:
Hep3B2.1-7 tumor = assay: Anti-tumor activity in cell-derived xenograft model; assay type: in vivo, Balb/c nu/nu mice; conditions: IV 600 μg/head for 21 days
Method: Female Balb/c^nu/nu mice (5-week-old, Doo-Yeol Biotech Co. Ltd. Korea) were subcutaneously implanted with Hep3B2.1-7 tumor block (1 mm^3) into the left back side of the mouse. […] Tumor size was monitored by measuring the longest (length) and shortest dimensions (width) once a day with a dial caliper, and tumor volume was calculated as width2×length×0.5.

PANC-1-Luc cells = assay: Tumor targeting in orthotopic pancreatic cancer xenograft model (Alexa680 imaging); assay type: in vivo, Balb/c nu/nu mice; conditions: IV 40 mg/kg Alexa680-labeled protein; listed as iCP-SOCS3, 40 mg/kg
Method: Tumor-targeting of the anticancer agent iCP-SOCS3 (HM165S3B) recombinant proteins was investigated in an orthotopic xenograft model. The protocol was adapted from World J Gastroenterol. 2014 Jul. 28; 20(28): 9476-9485. […] After 7 weeks, the mice were IP injected with 100 μl of luciferin (Sigma-Aldrich, St. Louis, Mo., USA) and imaged by Xenogen IVIS-200 imaging system 15 minute later. As shown in FIG. 88 (A), pancreatic cancer model was well established.
The iCP-SOCS3 recombinant proteins were labeled and IV injected to the mice with 40 mg/kg according to a manual of Alexa680 kit (Thermo Fisher Scientific, San Jose, Calif., USA).

RAW 264.7 cells [1] = assay: Mechanism of aMTD-mediated uptake (EDTA, proteinase K, taxol, antimycin, temperature; flow cytometry); assay type: cell-based; conditions: for protein uptake after proteinase K pretreatment: 5 ug/ml proteinase K 10 minutes; for protein uptake after taxol pretreatment: 20 uM taxol 30 minutes
Method: The mechanism of basic CPP (TAT and PolyR)-mediated intracellular delivery was also investigated in the same manner as in Example 7-1 and Example 14-2.
(1) RAW 264.7 cells were pretreated with 100 mM EDTA for 3 hours, and then treated with 10 uM of iCP-SOCS3 (HM165S3B) protein for 1 hour, followed by flow cytometry in the same manner as in Example 7-1 (FIG. 51A).
(2) RAW 264.7 cells were pretreated with 5 ug/ml of proteinase K for 10 minutes, and then treated with 10 uM of iCP-SOCS3 (HM165S3B) protein for 1 hour, followed by flow cytometry (FIG. 51B).
(3) RAW 264.7 cells were pretreated with 20 uM taxol for 30 minutes, and then treated with 10 uM of iCP-SOCS3 (HM165S3B) protein for 1 hour, followed by flow cytometry (FIG. 52A).
(4) RAW 264.7 cells were pretreated with 1 mM ATP and 10 uM antimycin singly or in combination for 2 hours, and then treated with 10 uM of iCP-SOCS3 (HM165S3B) protein for 1 hour, followed by flow cytometry (FIG. 52B).
(5) RAW 264.7 cells were left at 4° C. and 37° C. for 1 hour, respectively, and then treated with 10 uM of iCP-SOCS3 (HM165S3B) protein for 1 hour, followed by flow cytometry (FIG. 53).

RAW 264.7 cells [2] = assay: Cell-permeability of FITC-labeled SOCS3 recombinant proteins (flow cytometry); assay type: cell-based
Method: To examine cell-permeability of SOCS3 recombinant protein, SOCS3 recombinant proteins were conjugated to 5/6-fluorescein isothiocyanate (FITC). RAW 264.7 (KCLB, Seoul, South Korea) (FIG. 20) or NIH3T3 cells (KCLB, Seoul, South Korea) (FIG. 21) were treated with 10 μM FITC-labeled SOCS3 recombinant proteins and cultivated for 1 hr at 37° C.
In this regard, RAW 264.7 cells were cultured in a DMEM medium containing 10% fetal bovine serum (FBS, Hyclone, USA) and […] of 1% penicillin/streptomycin (Hyclone, USA).
After cultivation, the cells were washed three times with ice-cold PBS (Phosphate-buffered saline, Hyclone, USA) and treated with proteinase K (10 μg/mL, SIGMA, USA) to remove surface-bound proteins, and internalized proteins were measured by flow cytometry (FlowJo cytometric analysis software, Guava, Millipore, Darmstadt, Germany). Untreated cells (gray) and equimolar concentration of unconjugated FITC (FITC only, green)-treated cells were served as control (FIG. 20). Each of NIH3T3 cells was incubated for 1 hour at 37° C. with 10 μM FITC-labeled SOCS3 protein. For nuclear staining, a mixture of […] Mounting Medium (Vector laboratories, Burlingame, Calif.) and DAPI (4′,6-diamidino-2-phenylindole) was added to NIH3T3 cells, and visualized using a confocal laser microscope (LSM700, Zeiss, Germany) (FIG. 21).

IL-6 = assay: LPS/IFN-γ-induced cytokine secretion in peritoneal macrophages (cytometric bead array), IL-6; assay type: cell-based, C3H/HeJ mice; conditions: 10 μM protein; IFN-γ and LPS
Method: Peritoneal macrophages were obtained from C3H/HeJ mice (Doo-Yeol Biotech Co. Ltd. Korea) Peritoneal macrophages were incubated with 10 μM SOCS3 recombinant proteins (1:HS3, 2:HM165S3, 3:HM165S3A and 4:HM165S3B, respectively) for 1 hr at 37° C. and then stimulated them with LPS (Lipopolysaccharide)(500 ng/ml) and/or IFN-γ (100 U/ml) without removing iCP-SOCS3 proteins for 3, 6, or 9 hrs. The culture media were collected, and the extracellular levels of cytokine (TNF-α, IL-6) were measured by a cytometric bead array (BD Pharmingen, San Diego, Calif., USA) according to the manufacturer's instructions.

[3] = test system: Bcl-2, NF-κB (p-p65), cleaved caspase-3 in HepG2 cells; assay: Immunoblotting of apoptosis-related proteins; assay type: cell-based, human; conditions: 10 μM, 24 hr
Method: (§1) Cells were treated for 24 hr with 10 μM HS3B or HM165S3B proteins, lysed in RIPA lysis buffer containing proteinase inhibitor cocktail, incubated for 15 min at 4° C., and centrifuged at 13,000 rpm for 10 min at 4° C. Equal amounts of lysates were separated on 15% SDS-PAGE gels and transferred to a nitrocellulose membrane. The membranes were blocked using 5% skim milk or 5% Albumin in TBST and incubated with the following antibodies: anti-Bcl-2 (Santa Cruz biotechnology), anti-Cleaved Caspase 3 (Cell Signaling Technology), anti-phospho-p65 and anti-p65 (Cell Signaling Technology), then HRP conjugated anti-mouse or anti-rabbit secondary antibody. The expression of each protein was determined by immunoblotting with indicated antibodies. An antibody against β-actin was used as a loading control.

[4] = test system: Bcl-2, NF-κB (p-p65), cleaved caspase-3 in Hep3B cells; assay: Immunoblotting of apoptosis-related proteins; assay type: cell-based, human; conditions: 10 μM, 24 hr
Method: as §1

[5] = then 10 uM protein 1 hour, listed as aMTD165/SD-fused SOCS3 recombinant proteins

B1: HM165S3B: His-tagged recombinant protein of aMTD165, human SOCS3 and solubilization domain B; prototype improved cell-permeable SOCS3 (protein)
chain: MGSSHHHHHHSSGLVPRGSHMALAVPVALAIVPVTHSKFPAAGMETSRPLDTSLRLKTFSSKSEYQLVVNAVRKLQESGFYWSAVTGGEANLLLSAEPAGTFLIRDSSDQRHFFTLSVKTQSGTKNLRIQCEGGSFSLQSDPRSTQPVPRFDCVLKLVHHYMETPPPGAPSFPSPPTEPSSEVPEQPSAQPLPGSPPRRAYYIYSGGEKIPLVLSRPLSSNVATLQHLCRKTVNGHLDSYEKVTQLPGPIREFLDQYDAPLGSMAEQSDKDVKYYTLEEIQKHKDSKSTWVILHHKVYDLTKFLEEHPGGEEVLGEQAGGDATENFEDVGHSTDARELSKTYIIGELHPDDRSKIAKPSETL
modifications: Amino acid sequence of HM165S3B
Hep3B2.1-7 tumor
  tumor growth inhibition at day 21: 80%
Hep3B2.1-7 tumor; 2 weeks after termination
  tumor growth inhibition at day 35: 70%
PANC-1-Luc cells
  biodistribution / tumor accumulation: delivered to every part of the body at 5 minutes; also recorded: a large amount of the proteins were accumulated only in tumor
RAW 264.7 cells [1]; then 10 uM protein 1 hour
  protein uptake after proteinase K pretreatment: essentially unaffected
  protein uptake after taxol pretreatment: essentially unaffected
RAW 264.7 cells [1]; [5]
  protein uptake after proteinase K pretreatment: independent to cell surface receptor
  protein uptake after taxol pretreatment: not due to endocytosis
RAW 264.7 cells [1]; 1 mM ATP and 10 uM antimycin 2 hours, then 10 uM protein 1 hour
  protein uptake after antimycin (ATP depletion): essentially unaffected
RAW 264.7 cells [1]; 100 mM EDTA 3 hours, then 10 uM protein 1 hour
  protein uptake after EDTA pretreatment: blocked
RAW 264.7 cells [1]; 4° C. vs 37° C., 10 uM protein 1 hour
  protein uptake at low temperature: blocked
RAW 264.7 cells [2]; 0.05 μM~10 μM, 1 hrs
  dose-dependency of cell-permeability: dose-dependent
RAW 264.7 cells [2]; 10 μM FITC-labeled protein, 1 hr, 37° C.
  cell-permeability (protein uptake): efficiently entered the cells; also recorded: very efficient; also recorded: showed the highest cell-permeability; also recorded: high cell permeability
RAW 264.7 cells [2]; 10 μM, 5~180 minutes
  time-dependency of cell-permeability: high level of cell-permeability of iCP-SOCS3 was observed only 5 minutes post-treatment and could be seen even at 180 minutes mark
IL-6
  effect on IL-6 secretion: showed the greatest inhibitory effect on cytokine secretion
[3]
  expression of Bcl-2, HepG2: dramatically reduced
  expression of NF-κB (p-p65), HepG2: dramatically reduced
  level of cleaved caspase-3, HepG2: increased
[4]
  expression of Bcl-2, Hep3B: dramatically reduced
  expression of NF-κB (p-p65), Hep3B: dramatically reduced
  level of cleaved caspase-3, Hep3B: increased
